Data on 6 molecules can be found in patent publication US20200024354A1 (OSSIANIX, published 2020).

Experiment [1] has as its target T1, recombinant mouse BAFF (R&D Systems) (mouse, UniProt Q9WU72 127-309). Put plainly: cell-based or functional assay.
For experiment [2], the target named is recombinant human BAFF-Fc (Sino Biological) (human) (UniProt Q9Y275). Put plainly: cell-based or functional assay.
For experiment [3], the target named is T2, recombinant human BAFF-Fc (Sino Biological) (human, UniProt Q9Y275 134-285). Briefly: cell-based or functional assay.
In experiment [4] the target is T3, human BAFF (recombinant) (human, UniProt Q9Y275 134-285).
T3 construct: also called hBAFF; recombinant BAFF (Sino biologicals)
Briefly: ELISA on coated human BAFF.

The target of experiment [5] is T3, human BAFF (recombinant). Put plainly: ELISA on coated human BAFF (legend of FIG. 18; rounded form of 0.632 nM). As to the method: Based on the results of Example 11, the A07 anti-BAFF molecule was reformatted as a mouse Fc fusion protein with effector function intact. The protein was expressed and purified as described above and EC50 binding to human BAFF was assessed by ELISA as previously described. […] Mice are then injected i.p. with 100 μg of A07-Fc, 5A7-Fc, or blank control (PBS) on day 0 and again on day 4, 8, and 12 before being be culled on day 15. B cell subset populations in the spleen are analysed by flow cytometry as described above and improvements in B cell depletion are anticipated.

The target in experiment [6] is T2, recombinant human BAFF-Fc (Sino …). Briefly: blocking ELISA: periplasmic extract + 1.14 nM BAFF-Fc on coated BAFF-R extracellular domain, anti-human Fc-HRP. As to the method:
The ability of selected BAFF-specific VNARs to prevent the binding of BAFF to its receptor (BAFF-R) was tested in a blocking ELISA format. Briefly, selected clones were grown in 96 deep-well plates and the periplasmic fraction was extracted as described above. Nunc Maxisorp 96-well plates were coated at 1 μg/mL with the BAFF-R extracellular domain (Peprotech) and blocked in PBS-0.1% Tween+2.5% milk. The periplasmic fraction was also pre-blocked in PBS-0.1% Tween-20+2.5% milk in the presence of 1.14 nM BAFF-Fc (Sino Biological) before being exposed to the BAFF-R coated surface. After washing in PBS-0.1% Tween-20, BAFF bound to its receptor was detected via its Fc moiety using a peroxidase-conjugated anti-human Fc (Sigma). Absorbance at 450 nm was recorded using an Envision multiwell reader (Perkin Elmer) (FIG. 8) and clones reducing the amount of BAFF bound to its receptor by more than 50% were selected as specific blockers.
Background: ELISA stands for enzyme-linked immunosorbent assay.

Experiment [7] shares this target. Briefly: ELISA, purified monomeric VNAR on coated BAFF-Fc, anti-FLAG detection.
The next experiment concerns the target T4, APRIL (Sigma) (UniProt O75888 105-250, limits assumed).
T4 sequence (looked up): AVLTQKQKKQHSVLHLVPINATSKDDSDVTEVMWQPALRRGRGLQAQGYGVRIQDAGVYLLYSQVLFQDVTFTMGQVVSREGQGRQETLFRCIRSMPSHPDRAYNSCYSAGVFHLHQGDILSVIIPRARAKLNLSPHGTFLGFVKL
Briefly: ELISA, periplasmic extract on coated APRIL (1 µg/mL), anti-FLAG-HRP. As to the method: Clones blocking the interaction between BAFF and its three receptors were tested for their ability to cross-react with BAFF's closest related protein, APRIL. Clones were grown in a 96 well format, periplasmic fraction was extracted by osmotic shock as previously described and directly used in a binding ELISA. Nunc Maxisorp 96 well plates were coated at 1 μg/mL with either BAFF-Fc (Sino Biological), HSA (Sigma), or APRIL (Sigma) and periplasmic fraction, pre-blocked in PBS-0.1% Tween+2.5% Milk, was exposed to the coated surface. After washing in PBS-0.1% Tween, bound VNARs were detected using a peroxidase-conjugated anti-FLAG antibody (Sigma). Absorbance at 450 nm was recorded using an Envision multiwell reader (Perkin Elmer).

Experiment [8] deals with T2, recombinant human BAFF-Fc (Sino …). Put plainly: blocking ELISA, VNAR diluted with 0.5 nM BAFF-Fc; binding of BAFF-Fc to coated BCMA. The method, then: (§1) The pre-blocked proteins were then exposed to Nunc Maxisorp 96 well plates which were coated at 1 μg/mL with the recombinant human TACI or BCMA (Peprotech), preblocked in (PBS-0.1% Tween+2.5% Milk). After washing in PBS-0.1% Tween, BAFF bound to its receptor was detected via its Fc moiety using a peroxidase-conjugated anti-human Fc (Sigma). Absorbance at 450 nm was recorded using an Envision multiwell reader (Perkin Elmer) and IC50 values were calculated by fitting the curves (non-linear regression) using GraphPad Prism®. The results are shown in FIG. 15 and the fitted IC50 values are tabulated below.

The target is the same in experiment [9]. Briefly: blocking ELISA, binding of BAFF-Fc to coated BR3 (BAFF-R); repeats Table 2.
For experiment [10] the target is unchanged. Put plainly: blocking ELISA, VNAR diluted with 0.5 nM BAFF-Fc; binding of BAFF-Fc to coated TACI. The method, then: as §1
For experiment [11] the target is unchanged. Put plainly: blocking ELISA, VNAR diluted with 1.14 nM BAFF-Fc; binding of BAFF-Fc to coated BAFF-R extracellular domain.
For experiment [12], the target named is T5, human serum albumin (Sigma) (human, UniProt P02768 25-609).
T5 construct: Negative control coat; also called HSA
Briefly: ELISA, periplasmic extract on coated HSA (1 µg/mL), anti-FLAG-HRP.

The target of experiment [13] is T1, recombinant mouse BAFF (R&D Systems). Put plainly: Mouse cross-reactivity grade (binds to both human and mouse BAFF); assay not described.
Experiment [14] has as its target T2, recombinant human BAFF-Fc (Sino …). Put plainly: cell-based or functional assay. The source holds these as a separate data set.

T1 sequence (Q9WU72 127-309 limits assumed): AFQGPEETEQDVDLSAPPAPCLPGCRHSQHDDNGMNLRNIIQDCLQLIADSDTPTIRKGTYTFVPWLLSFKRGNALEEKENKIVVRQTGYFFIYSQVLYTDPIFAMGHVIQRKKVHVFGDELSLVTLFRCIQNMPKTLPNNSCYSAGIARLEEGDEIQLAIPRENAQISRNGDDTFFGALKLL
T2 sequence (Q9Y275 134-285): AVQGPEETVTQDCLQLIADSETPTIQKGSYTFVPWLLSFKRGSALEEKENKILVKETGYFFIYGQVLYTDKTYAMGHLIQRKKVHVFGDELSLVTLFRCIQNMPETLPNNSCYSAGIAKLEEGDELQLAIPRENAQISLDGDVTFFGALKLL
T3 sequence (Q9Y275 134-285 limits assumed): as the sequence (Q9Y275 134-285) above
T5 sequence (P02768 25-609 limits assumed): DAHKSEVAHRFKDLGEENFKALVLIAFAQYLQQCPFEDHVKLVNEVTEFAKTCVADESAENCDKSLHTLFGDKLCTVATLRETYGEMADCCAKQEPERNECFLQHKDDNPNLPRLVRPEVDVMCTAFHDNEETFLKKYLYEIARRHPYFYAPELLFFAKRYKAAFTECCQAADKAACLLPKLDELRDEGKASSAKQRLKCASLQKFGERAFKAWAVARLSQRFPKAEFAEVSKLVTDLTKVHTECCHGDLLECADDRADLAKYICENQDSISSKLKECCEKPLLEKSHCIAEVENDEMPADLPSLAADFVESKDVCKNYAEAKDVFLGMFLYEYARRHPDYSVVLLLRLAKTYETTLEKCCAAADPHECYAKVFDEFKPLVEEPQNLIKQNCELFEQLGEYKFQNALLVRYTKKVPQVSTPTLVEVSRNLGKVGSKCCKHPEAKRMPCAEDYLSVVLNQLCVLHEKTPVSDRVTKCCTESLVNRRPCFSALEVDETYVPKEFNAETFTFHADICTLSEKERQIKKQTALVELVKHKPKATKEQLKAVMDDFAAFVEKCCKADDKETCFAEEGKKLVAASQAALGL
recombinant human BAFF-Fc (Sino Biological) (human), sequence (Q9Y275 134-285): as the sequence (Q9Y275 134-285) above

Consider “BAFFr (positive control, Example 10) (from UniProt Q96RJ3 1-76) (receptor)”, for which the IC50 (mouse), proliferation of mouse splenic B cells in experiment [1] came to 7.06 nM. For the same molecule, in [2], the IC50 (human), proliferation of mouse splenic B cells was 66.2 nM.

B1: A07 formatted as a human Fc fusion (Fc fusion, not shown: a dimerising Fc or GST)
chain: AQAAARVDQTPQTITKETGESLTINCVLRDSNCALSNLYWYRKKSGSTNEESISLGGRYVETVNSGSKSFSLRINDLTVEDSGTYRCKVQLPYDPLTKECILGRMDVYGDGTAVTVN
B1: the “IC50 (mouse), proliferation of mouse splenic B cells” value in [1] was 1.95 nM. Also, in [3], the “IC50 (human), proliferation of mouse splenic B cells” value stood at 2.48 nM.

B2: A07 formatted as a mouse Fc fusion protein with effector function intact (Fc fusion)
chain: AQAAARVDQTPQTITKETGESLTINCVLRDSNCALSNLYWYRKKSGSTNEESISLGGRYVETVNSGSKSFSLRINDLTVEDSGTYRCKVQLPYDPLTKECILGRMDVYGDGTAVTVNAASGAHHHHHHGADYKDDDDK
notes: also called A07-mFc; not shown: mouse Fc with effector function
In the case of B2, the EC50 with human BAFF (recombinant) [4] is approximately 0.632 nM; with human BAFF (recombinant) [5] it was approximately 0.6 nM.

B3: B07 formatted as a human Fc fusion (Fc fusion, not shown: a dimerising Fc or GST)
chain: AQAAARVDQTPRSVTKETGESLTINCVLRDSICALSSTHWYRKKSGSTNEESISKGGRYVETVNSGSKSFSLRINDLTVEDSGTYRCKVHGGRSTGLCGDVLLAGDVYGGGTAVTVN
Take B3: the “IC50 (mouse), proliferation of mouse splenic B cells” value in experiment [1] was determined as 604 nM. Moreover, in [3], the “IC50 (human), proliferation of mouse splenic B cells” value was determined as 3.79 nM.

B4: ID2-101B08 (VNAR)
VNAR: AARVDQTPQTITKETGESLTINCVLRDSNCALSSTLWYRTKSGSRNEESISKGGRYVETVNSGSKSFSLKINDLTVEDSGTYRCKVPRDLLLCKRPRARLPDVYGGGTAVTVNA
notes: Nurse shark VNAR single domain, monomer in periplasmic extract
With B4, in [6], the binding result is “binds”.

B5: ID2-101A09 (VNAR)
VNAR: AARVDQTPQTITKETGESLTINCVLRDNNCALSTTYWYRKKSGSTNEESISKGGRYVETVNSGSKSFSLRINDLTVEDSGTYRCKVREDPLMCRYYLDRYRDVYGGGTVVTVNA
notes: Nurse shark VNAR single domain, monomer
With B5, the EC50 in experiment [7] was found to be 4.9 nM. Besides, the binding result with APRIL (Sigma) is recorded as “no binding”; in experiment [12] it was “no binding”; in experiment [13], “binds”. Further, the IC50 in experiment [8] came to 23.6 nM; in [9], 9.7 nM; in experiment [10] it was 27.2 nM; in [11] it was 9.7 nM. In addition, the “CELLULAR IC50” value in [14] turned out to be 215 nM.

For orientation: EC50 means the concentration giving half of the maximal effect. What is called IC50 is the point on the concentration scale where inhibition reaches its midpoint.
